Results published in paper PMC10786891, “Massively parallel profiling of RNA-targeting CRISPR-Cas13d”.
Positions count from the first letter of the chain named. Names and notes keep the numbering of the source.

T1: EsCas13d, nuclease-dead (Eubacterium siraeum, UniProt B0MS50, R295A;H300A;R849A;H854A)
T1 sequence: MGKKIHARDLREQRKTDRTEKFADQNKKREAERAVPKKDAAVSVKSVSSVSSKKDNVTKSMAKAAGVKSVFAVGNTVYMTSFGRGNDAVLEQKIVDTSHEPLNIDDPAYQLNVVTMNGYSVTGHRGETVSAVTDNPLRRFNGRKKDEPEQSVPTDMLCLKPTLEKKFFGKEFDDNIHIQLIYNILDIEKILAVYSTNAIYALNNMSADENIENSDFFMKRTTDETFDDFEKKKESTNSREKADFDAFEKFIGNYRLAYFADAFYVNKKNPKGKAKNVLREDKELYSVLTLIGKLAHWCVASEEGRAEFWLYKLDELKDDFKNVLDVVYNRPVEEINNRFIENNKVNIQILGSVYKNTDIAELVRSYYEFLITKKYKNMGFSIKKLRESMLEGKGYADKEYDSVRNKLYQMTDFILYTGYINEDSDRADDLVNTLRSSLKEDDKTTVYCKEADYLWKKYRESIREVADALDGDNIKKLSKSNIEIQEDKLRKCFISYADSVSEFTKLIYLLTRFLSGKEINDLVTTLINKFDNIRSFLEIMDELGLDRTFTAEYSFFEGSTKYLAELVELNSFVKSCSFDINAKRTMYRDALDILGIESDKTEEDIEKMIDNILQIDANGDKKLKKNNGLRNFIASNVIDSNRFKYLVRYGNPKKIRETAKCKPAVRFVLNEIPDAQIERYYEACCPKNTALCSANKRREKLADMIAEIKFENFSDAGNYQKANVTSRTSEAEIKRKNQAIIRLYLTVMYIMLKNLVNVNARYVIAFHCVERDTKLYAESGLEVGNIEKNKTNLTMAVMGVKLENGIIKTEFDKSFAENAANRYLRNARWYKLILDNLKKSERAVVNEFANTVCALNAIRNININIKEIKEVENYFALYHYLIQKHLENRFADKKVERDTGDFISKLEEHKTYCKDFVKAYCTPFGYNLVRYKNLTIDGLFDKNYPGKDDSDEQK

B1: target 1 G5U,U11C (mixed)
RNA 1: CACCCGUGCAAAAAUGCAGGGGUCUAAAACUGAGCGGAUAACCUCUCUAUGG
RNA 2: GGGAAUGGAUCCACAUCUACGAAUUCGUACCAUAGAGAGGCUAUCCUCUCACCGAGAUCGGAAGAGCACACGU
B2: target 1 insC 3' of 8,insG 3' of 6 (mixed)
RNA 1: B1 RNA 1
RNA 2: GGGAAUGGAUCCACAUCUACGAAUUCGUACCAUAGAGAGGUUAUCCCGGCUCACCGAGAUCGGAAGAGCACACGU
B3: target 1 A20C,C21A (mixed)
RNA 1: B1 RNA 1
RNA 2: B1 RNA 2 with C31A, A32C, C41U, U47G
B4: target 1 U10A,U11A (mixed)
RNA 1: B1 RNA 1
RNA 2: B1 RNA 2 with C41A, U42A, U47G
B5: target 1 insG 3' of 18,insA 3' of 12 (mixed)
RNA 1: B1 RNA 1
RNA 2: GGGAAUGGAUCCACAUCUACGAAUUCGUACCAUAGGAGAGGAUUAUCCGCUCACCGAGAUCGGAAGAGCACACGU
B6: target 1 insC 3' of 13,insC 3' of 5 (mixed)
RNA 1: B1 RNA 1
RNA 2: B2 RNA 2 with G40C, U41G, A43U, U44A, C45U, G49C
B7: target 1 complement block 1-9 (mixed)
RNA 1: B1 RNA 1
RNA 2: GGGAAUGGAUCCACAUCUACGAAUUCGUACCAUAGAGAGGUUUAGGCGAGUCCGAGAUCGGAAGAGCACACGU
B8: target 1 insA 3' of 15,insG 3' of 3 (mixed)
RNA 1: B1 RNA 1
RNA 2: B2 RNA 2 with G39A, U41G, A43U, U44A, C45U, G49C, C50U, U51G
B9: target 1 U3G,G5U (mixed)
RNA 1: B1 RNA 1
RNA 2: B1 RNA 2 with C41U, U49G
B10: target 1 C6G,G17A (mixed)
RNA 1: B1 RNA 1
RNA 2: B1 RNA 2 with G35A, C41U, C46G, U47G
B11: target 1 G17U,A20C (mixed)
RNA 1: B1 RNA 1
RNA 2: B1 RNA 2 with A32C, G35U, C41U, U47G
B12: target 1 G17U,U19G (mixed)
RNA 1: B1 RNA 1
RNA 2: B1 RNA 2 with U33G, G35U, C41U, U47G
B13: target 1 A20C (mixed)
RNA 1: B1 RNA 1
RNA 2: B1 RNA 2 with A32C, C41U, U47G
B14: target 1 C4G,C21A (mixed)
RNA 1: B1 RNA 1
RNA 2: B1 RNA 2 with C31A, C41U, U47G, C48G
B15: target 1 insU 3' of 20,insC 3' of 18 (mixed)
RNA 1: B1 RNA 1
RNA 2: B5 RNA 2 with A34U, G35A, G36C, A37G, G38A, A39G, G40A, A42G
B16: target 1 A1U,C2A (mixed)
RNA 1: B1 RNA 1
RNA 2: B1 RNA 2 with C41U, U47G, C50A, A51U
B17: target 1 insU 3' of 17,insU 3' of 7 (mixed)
RNA 1: B1 RNA 1
RNA 2: B5 RNA 2 with G36U, A42U, U44A, A45U, U46C, C47U
B18: target 1 insC 3' of 10,insC 3' of 8 (mixed)
RNA 1: B1 RNA 1
RNA 2: B2 RNA 2 with A43C, U44A, C45U, G48C
B19: target 1 insA 3' of 11,insC 3' of 1 (mixed)
RNA 1: B1 RNA 1
RNA 2: B2 RNA 2 with U42A, A43U, U44A, C45U, G49C, C50U, U51C, C52A, A53C
B20: target 1 insC 3' of 14,insG 3' of 4 (mixed)
RNA 1: B1 RNA 1
RNA 2: B2 RNA 2 with G39C, U41G, A43U, U44A, C45U, G49C, C50G
B21: target 1 A1U,C4A (mixed)
RNA 1: B1 RNA 1
RNA 2: B1 RNA 2 with C41U, U47G, C48A, A51U
B22: target 1 insA 3' of 22,insC 3' of 22 (mixed)
RNA 1: B1 RNA 1
RNA 2: GGGAAUGGAUCCACAUCUACGAAUUCGUACACCAUAGAGAGGUUAUCCGCUCACCGAGAUCGGAAGAGCACACGU
B23: target 1 insG 3' of 3,insG 3' of 2 (mixed)
RNA 1: B1 RNA 1
RNA 2: B2 RNA 2 with C47G, G48C, G49U, C50G, U51C, C52G
B24: target 1 complement block 1-7 (mixed)
RNA 1: B1 RNA 1
RNA 2: B7 RNA 2 with U43A, A44U
B25: target 1 insC 3' of 15,insA 3' of 10 (mixed)
RNA 1: B1 RNA 1
RNA 2: B5 RNA 2 with G36A, A37G, G38C, A42U, U44A
B26: target 1 U3A,G5C (mixed)
RNA 1: B1 RNA 1
RNA 2: B1 RNA 2 with C41U, U47C, U49A
B27: target 1 G13C,A14U (mixed)
RNA 1: B1 RNA 1
RNA 2: B1 RNA 2 with A38U, G39C, C41U, U47G
B28: target 1 insA 3' of 12,insU 3' of 12 (mixed)
RNA 1: B1 RNA 1
RNA 2: B2 RNA 2 with U41A, A43U, C45A, C46U, G48C
B29: target 1 insA 3' of 11,insU 3' of 1 (mixed)
RNA 1: B1 RNA 1
RNA 2: B2 RNA 2 with U42A, A43U, U44A, C45U, G49C, C50U, U51C, C52A, A53U
B30: target 1 insC 3' of 10,insG 3' of 9 (mixed)
RNA 1: B1 RNA 1
RNA 2: B2 RNA 2 with A43C, U44A, C45G, C46U, G48C
B31: target 1 C2G,U3C (mixed)
RNA 1: B1 RNA 1
RNA 2: B1 RNA 2 with C41U, U47G, U49C, C50G
B32: target 1 insA 3' of 11,insG 3' of 1 (mixed)
RNA 1: B1 RNA 1
RNA 2: B2 RNA 2 with U42A, A43U, U44A, C45U, G49C, C50U, U51C, C52A, A53G
B33: target 1 U11A,G13U (mixed)
RNA 1: B1 RNA 1
RNA 2: B1 RNA 2 with G39U, C41A, U47G
B34: target 1 insC 3' of 16,insC 3' of 1 (mixed)
RNA 1: B1 RNA 1
RNA 2: GGGAAUGGAUCCACAUCUACGAAUUCGUACCAUAGACGAGGUUAUCCGCUCACCCGAGAUCGGAAGAGCACACGU

Molecular target: T1, EsCas13d, nuclease-dead
Assay: crRNA (strand 1, pre-loaded); Mg2+; 40 mM Tris-HCl pH 7.5, 150 mM NaCl, 6 mM MgCl2, 1 mM DTT, 0.1% Tween-20, 0.2 mg/ml BSA; 25 C; 10 min per concentration, then washed
Settings: tags: His6-TwinStrep-SUMO cleaved; N-terminal SNAP kept (SNAP-Surface 488); label: 3' end held by stalled T7 RNA polymerase

Binder | Kd [µM]
B1 | 0.061 ± 0.008
B2 | 0.0171 ± 0.0013
B3 | 0.00563 ± 0.00034
B4 | 0.0118 ± 0.0004
B5 | 0.073 ± 0.032
B6 | 0.0169 ± 0.0012
B7 | 0.0095 ± 0.0007
B8 | 0.0051 ± 0.0004
B9 | 0.0141 ± 0.0005
B10 | 0.048 ± 0.006
B11 | 0.088 ± 0.021
B12 | 0.08 ± 0.04
B13 | 0.0342 ± 0.0025
B14 | 0.0255 ± 0.0028
B15 | 0.036 ± 0.004
B16 | 0.0084 ± 0.0007
B17 | 0.0254 ± 0.001

Binder | Kd [µM]
B18 | 0.063 ± 0.013
B19 | 0.0158 ± 0.0011
B20 | 0.021 ± 0.0012
B21 | 0.00592 ± 0.00027
B22 | 0.00892 ± 0.00033
B23 | 0.0062 ± 0.0004
B24 | 0.0239 ± 0.0024
B25 | 0.065 ± 0.011
B26 | 0.0169 ± 0.0009
B27 | 0.0131 ± 0.0011
B28 | 0.058 ± 0.016
B29 | 0.019 ± 0.0013
B30 | 0.0171 ± 0.001
B31 | 0.0086 ± 0.0007
B32 | 0.0208 ± 0.001
B33 | 0.0342 ± 0.0022
B34 | 0.077 ± 0.032
